Data: PMC9671094 (Immunity, 2022)

B1: PCT64.13C (antibody, V domains shown)
VH: EVQLVESGGGLVKPGGSLRLSCAASGFTFTNAWLDWVRQAPGKGLEWVGRIKSKTDGGTTDHAAPVKGRFTISRDDSKNTVYLQMNSLKIEDTAVYYCTTGVETYDFWSGYDDHYYDYYFKDVWGKGTTVTVSS
VL: EIVLTQSPGTLSLSPGERATLSCRASQSVSNNYLAWYQQKPGQAPRLLIYGASSRATGIPDRFSGSGSGTDFTLTISRLEPEDFAVYYCQQSARSFTFGPGTKVDIK
B2: PG9.iGL (antibody, V domains shown)
VH: QVQLVESGGGVVQPGRSLRLSCAASGFTFSSYGMHWVRQAPGKGLEWVAVISYDGSNKYYADSVKGRFTISRDNSKNTLYLQMNSLRAEDTAVYYCAREAGGPDYRNGYNYYDFWSGYYYYYYMDVWGKGTTVTVSS
VL: QSALTQPASVSGSPGQSITISCTGTSSDVGGYNYVSWYQQHPGKAPKLMIYEVSNRPSGVSNRFSGSKSGNTASLTISGLQAEDEADYYCSSYTSSSTVVFGGGTKLTVL

Molecular target: T1, BG505 SOSIP.D664 (HIV-1 isolate BG505 (clade A), stabilised)
T1 construct: also called BG505.SOSIP.664; source: HEK 293F, co-transfected with furin, purified (HisTrap, SEC); copies: 3 + 3
Assay: SPR; IgG captured as ligand by anti-human IgG (Human Antibody Capture Kit) on a GLC chip, ProteOn XPR36; trimer as analyte; 1x HBS-EP+ pH 7.4 with 1 mg/ml BSA; 1:1 binding model; highest SOSIP concentration 5 uM or 10 uM
Details: both partners purified

Binder | Kd [µM]
B1 | > 5
B2 | > 5
